Experimental findings from paper doi:10.1101/2022.11.26.518022 (bioRxiv, 2022) are described below.

Test [1] concerns the target T1, Unr CSD789 (A756-D990) (Drosophila, UniProt B7Z0E2 756-990).
T1 sequence (looked up): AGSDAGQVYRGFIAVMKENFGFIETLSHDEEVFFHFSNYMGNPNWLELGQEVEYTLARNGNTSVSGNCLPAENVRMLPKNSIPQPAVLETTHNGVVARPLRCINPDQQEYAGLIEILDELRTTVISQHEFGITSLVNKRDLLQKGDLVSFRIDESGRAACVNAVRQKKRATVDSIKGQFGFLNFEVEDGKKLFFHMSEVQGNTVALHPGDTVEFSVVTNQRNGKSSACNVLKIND
Briefly: NMR titration.

For test [2], the target named is T2, Unr CSD78 (A756-K922) (Drosophila, UniProt B7Z0E2 756-922).
T2 sequence (looked up): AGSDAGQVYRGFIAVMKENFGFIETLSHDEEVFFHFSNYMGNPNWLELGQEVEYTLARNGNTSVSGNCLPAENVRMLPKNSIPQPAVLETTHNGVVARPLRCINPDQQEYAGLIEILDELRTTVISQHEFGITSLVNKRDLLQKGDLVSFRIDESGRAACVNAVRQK
Briefly: NMR titration.

B1: pAbp RRM3 (G176-A263) (domain or fragment)
chain: not shown
On to B1, for which the binding result in test [1] and in test [2] was “binds” in each case.
